These results are taken from patent US20090311271A1 (Pfizer, published 2009).

For test [1], the target named is T1, human LOX-1 expressed on the cell surface (human, UniProt P78380 1-273).
T1 construct: whole, on cells; also called CHO/LOX-1; CHO-LOX-1
Put plainly: flow cytometry: CRP (0-200 ug/ml) on CHO/LOX-1 cells, 60 min at 4 C, rabbit anti-CRP and labelled secondary antibody, MFI. How it is done: (§1) Cells were analyzed using a Becton Dickinson FACSCalibur® flow cytometer with CellQuest software (Becton Dickinson). Results are presented as the geometric mean fluorescence intensity (MFI).

Test [2] has as its target T1, human LOX-1 expressed on the cell …. Kind of test: flow cytometry, CRP on CHO/LOX-1 cells, detected with rabbit anti-CRP antibody; FACS on CHO/LOX-1 cells, 4 C. How it is done:
as §1

Test [3] has the same target. Kind of test: flow cytometry, CRP on LOX/CHO cells. How it is done:
as §1
In general terms: Flow cytometry measures light scatter and fluorescence of single cells or particles in a stream.

The target in test [4] is T2, recombinant mouse LOX-1 Fc protein (mouse, UniProt Q9EQ09 55-363, limits assumed).
T2 construct: The order Fc then LOX-1 is read from the label mFc-mLOX1; also called mFc-mLOX1; not shown: Fc part (label 'mFc')
T2 sequence (Q9EQ09 55-363 limits assumed): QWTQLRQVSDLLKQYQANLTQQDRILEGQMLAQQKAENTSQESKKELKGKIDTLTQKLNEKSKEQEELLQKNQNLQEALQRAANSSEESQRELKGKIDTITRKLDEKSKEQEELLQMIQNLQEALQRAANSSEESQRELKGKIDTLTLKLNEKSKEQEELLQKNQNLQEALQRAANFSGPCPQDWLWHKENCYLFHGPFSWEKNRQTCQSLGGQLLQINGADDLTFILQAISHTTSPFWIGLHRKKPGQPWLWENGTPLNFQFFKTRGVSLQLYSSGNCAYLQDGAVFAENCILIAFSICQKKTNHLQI
Kind of test: AlphaScreen competition: antibody against Bio-oxLDL binding to mFc-mLOX1. (Alpha assays give light when donor and acceptor beads are brought close together.)

For test [5], the target named is T2, recombinant mouse LOX-1 Fc protein. The test is described as above. The source holds these as a separate data set.
Test [6] has the same target. Kind of test: AlphaScreen competition: antibody against Bio-CRP binding to mFc-mLOX1; Bio-CRP + mFc-mLOX1 competition, not Bio-oxLDL.
The target is the same in test [7]. Kind of test: AlphaScreen competition: antibody against Bio-CRP binding to mFc-mLOX1.

What is called Kd is a measure of binding affinity in units of concentration. One may read the IC50 as the concentration that gives 50% inhibition.

B1: purified recombinant human CRP (ligand, UniProt P02741 19-224, looked up)
chain: QTDMSRKAFVFPKESDTSYVSLKAPLTKPLKAFTVCLHFYTELSSTRGYSIFSYATKRQDNEILIFWSKDIGYSFTVGGSEILFEVPEVTVAPVHICTSWESASGIVEFWVDGKPRVRKSLKKGYTVGAEASIILGQEQDSFGGNFEGSQSLVGDIGNVNMWDFVLSPDEINTIYLGGPFSPNVLNWRALKYEVQGEVFTKPQLWP
modifications: biotin label in the AlphaScreen assays (biotin-CRP); unlabelled in ELISA and cell assays
notes: Bought protein; also called C-reactive protein; biotin-CRP
For the molecule B1, the Kd is 86.6 µg/mL in test [1], 86 µg/mL in test [2] and 747 nM in test [3].

B2: LOX1-11A2 (antibody, V domains shown)
VH: EEQLVESGGGLVQPGGSLKLSCLASGFTLSNYGMNWIRQAPGKGLEWVASISSSSSYFYYADTVKGRFTISREDAKNTLNLQMTSLRSEDTALYYCARGITIAAGFTMDAWGQGTSVTVSS
VL: DIQMTQSPTSLSASLGETVSIECRASEDIYNNLAWYQQKSGKSPQLLIYYASTLQDGVPSRFSGSGSGTQFSLKISGMQPEDEGLYYCLQGSKYPRTFGGGTKLELKR
notes: Rat anti-mouse LOX-1 monoclonal antibody; also called rat anti-mouse LOX-1 antibody 11A2
As to B2, the IC50 in test [4] and in test [5] was 0.127 µg/mL in each case.

B3: LOX1-33F1 (antibody, V domains shown)
VH: QVQLKESGPGLVQPSQTLSLTCTVSGFSLTSHAVNWVRQPPGKGLEWIGAIWSGGTTDYNSGFRSRLSISRDTSKSQVLLKMNSLQTEDTAMYFCARGYDGYYYYAMDVWGQGTSVTVSS
VL: DIVMTQSPSSLAVSAGETVTINCKSSQSLLSSRNQKNYLAWYQQKPGQSPKLLIYLASTRESGVPDRFIGSGSGTDFTLTITSVQAEDLADYYCQQHYNYYTFGAGTKLELKR
notes: Rat anti-mouse LOX-1 monoclonal antibody; also called rat anti-mouse LOX-1 antibody 33F1
Turning to B3, the IC50 is 0.03 µg/mL in test [4], 0.193 µg/mL in test [6], 0.03 µg/mL in test [5] and 0.193 µg/mL in test [7].
